According to patent publication US20240325529A1, “MEDICAMENT FOR TREATMENT AND/OR PREVENTION OF CANCER” (TORAY INDUSTRIES, INC., priority 2021, published 2024):

B1: anti-CAPRIN-1 antibody (j) (antibody, V domains shown)
VH: DAELVKPGASVKISCKASGYTFTDHSIHWVQQKPEQGLEWIGYISPGNGNIKYNEKFKGKATLTADKSSSTAYMQLNSLTSEDSAVYFCKRSLGRGGPYYFDYWGQGTTVTVSS
VL: DIVLTQAAPSLPVTPGESVSISCRSSKSLLHSNGNTYLYWFLQRPGQSPQLLIYRMSNLASGVPDRFSGSGSGTAFTLRISRVEAEDVGVYYCMQHREYPVTFGSGPN
B2: anti-CAPRIN-1 antibody (a) (antibody, V domains shown)
VH: AVTLDESGGGLQMSRGGLSLVCKASGFDFSSYQMNWIRQAPGKGLEFVAAINKFGNSTGHGAAVKGRVTISRDNGQSTVRLQLNNLRAEDTAIYFCTKHAYGYCGSGTWCAAGEIDAWGHGTEVIVSS
VL: QAASTQPSSVSANPGETVEITCSGGGSYSYGWFQQKSPGSAPVTVIYYNNKRPSDIPSRFSGSKSGSTGTLTITGVQADDEAVYYCGSGDSTDTAVFGAGTTLTVLG
B3: anti-CAPRIN-1 antibody (d) (antibody, V domains shown)
VH: QSLEESGGDLVKPGASLTLTCTASGFSFSGSYYMSWVRQAPGKGLEWIAYIYIGDGVTAYANWAKGRFTISKASSTTVTLQMTSLTAADTATYFCARGNKLWGPGTLVTVSS
VL: DVVMTQTPASVEAAVGGTVTIKCQASQSISSYLAWYQQKPGQPPKRLIYDASNLDSGVPSRFKGSGSGTDFTITISDLECADAATYYCQCTAVSSATIYGNAFGGGTEVVVK
B4: anti-CAPRIN-1 antibody (o) (antibody, V domains shown)
VH: EVQLHQFGAELVKPGASVKISCKASGYTFTDYNMDWVKQSHGKSLEWIGDINPNYDSTSYNQKFKGKATLTVDKSSSTAYMELRSLTSEDTAVYYCARSRSYDYEGFAYWGQGTLVTVSA
VL: DIQMTQSPASLSASVGETVTITCRASGNIHNYLAWYQQKQGKSPQLLVYNAKTLADGVPSRFSGSGSGTQYSLKINSLQPEDFGSYYCQHFWSTLTFGAGTKLELKR
B5: anti-CAPRIN-1 antibody (af) (antibody, V domains shown)
VH: EVQLVESGGGLVQPGGSLRLSCAASGFSLSSHSLGWVRQAPGKGLEWIGDIRSGGSAYYANWAKGRFTISRDNSKNTLYLQMNSLRAEDTAVYYCTRTNGPSDLTNRLDLWGQGTLVTVSS
VL: QVLTQSPSSLSASVGDRVTINCQASQSLYNNENLAWFQQKPGKVPKRLIYGASTLASGVSSRFSGSGSGTEFTLTISSLQCEDFAIYYCLGEFSCGSADCFAFGGGTKVEIK
B6: anti-CAPRIN-1 antibody (ah) (antibody, V domains shown)
VH: EVQLVESGGGLVQPGGSLRLSCAASGFSLSSHSLGWVRQAPGKGLEWIGDIRSGGSAYYANWAKGRFTISRDNSKNTLYLQMNSLRAEDTAVYYCTRTNGPSDLTNRLDLWGQGTLVTVSS
VL: EQVLTQSPSSLSASVGDRVTINCQASQSLYNNENLAWFQQKPGKVPKRLIYGASTLASGVSSRFSGSGSGTEFTLTISNLQPEDFAIYYCLGEFSCGSADCFAFGGGTKVEIK
B7: anti-CAPRIN-1 antibody (ak) (antibody, V domains shown)
VH: EVQLVESGGGLVQPGGSLRLSCAASGFSLSSHSLGWVRQAPGKGLEWIGDIRSGGSAYYANWAKGRFTISRDNSKNTLYLQMNSLRAEDTAVYFCTRTNGPSDLTNRLDLWGQGTLVTVSS
VL: EQVLTQSPSSLSASVGDRVTINCQASQSLYNNENLAWFQQKPGKVPKRLIYGASTLASGVSSRFSGSGSGTEFTLTISNLQPEDFAIYYCLGEFSCGSADCFAFGGGTKVEIK
B8: anti-CAPRIN-1 antibody (aj) (antibody, V domains shown)
VH: EVQLVESGGGLVQPGGSLRLSCAASGFSLSSHSLGWVRQAPGKGLEWIGDIRSGGSAYYANWAKGRFTISRDNSKNTLYLQMNSLRAEDTAVYYCTRTNGPSDLTNRLDLWGQGTLVTVSS
VL: EIVLTQSPSSLSASVGDRVTINCQASQSLYNNENLAWFQQKPGKVPKRLIYGASTLASGVSSRFSGSGSGTEFTLTISNLQPEDFATYYCLGEFSCGSADCFAFGGGTKVEIK
B9: anti-CAPRIN-1 antibody (ai) (antibody, V domains shown)
VH: EVQLVESGGGLVQPGGSLRLSCAASGFSLSSHSLGWVRQAPGKGLEWIGDIRSGGSAYYANWAKGRFTISRDNSKNTLYLQMNSLRAEDTAVYFCTRTNGPSDLTNRLDLWGQGTLVTVSS
VL: EIVLTQSPSSLSASVGDRVTINCQASQSLYNNENLAWFQQKPGKVPKRLIYGASTLASGVSSRFSGSGSGTEFTLTISNLQPEDFATYYCLGEFSCGSADCFAFGGGTKVEIK
B10: anti-CAPRIN-1 antibody (ag) (antibody, V domains shown)
VH: EVQLVESGGGLVQPGGSLRLSCAASGFSLSSHSLGWVRQAPGKGLEWIGDIRSGGSAYYANWAKGRFTISRDNSKNTLYLQMNSLRAEDTAVYFCTRTNGPSDLTNRLDLWGQGTLVTVSS
VL: QVLTQSPSSLSASVGDRVTINCQASQSLYNNENLAWFQQKPGKVPKRLIYGASTLASGVSSRFSGSGSGTEFTLTISSLQCEDFAIYYCLGEFSCGSADCFAFGGGTKVEIK
B11: anti-CAPRIN-1 antibody (b) (antibody, V domains shown)
VH: EQSLVESGGGLVQPGGSLRLSCAASGFSLSSHSLGWVRQAPGKGLEWIGDIRSGGSAYYANWAKGRFTISRDNSKNTLYLQMNSLRAEDTAVYYCTRTNGPSDLTNRLDLWGQGTLVTVSS
VL: QVLTQSPSSLSASVGDRVTINCQASQSLYNNENLAWFQQKPGKVPKRLIYGASTLASGVSSRFSGSGSGTEFTLTISSLQCEDFAIYYCLGEFSCGSADCFAFGGGTKVEIK
B12: anti-CAPRIN-1 antibody (i) (antibody, V domains shown)
VH: GAELVRSGASVKMSCKASGYSFTDYNMYWVKQTPGQGLEWIGYIYPGNGGTNYNQKFKGKATLTADTSSSTAYMQISSLTSEDSAVYFCARDYDDGGYAMDYWGQGTTVTVSS
VL: DIQMTQSPASLSASVGETVTITCRASGNIHNYLTWYQQKQGKSPQLLVYNAKTLADGVPSRFSGSGSGTQYSLKINRLQPEDFGSYYCQHFWNIPWTFGGGTKLNSR
B13: anti-CAPRIN-1 antibody (e) (antibody, V domains shown)
VH: AVTLDESGGGLQTPGGALSLVCKASGFTFSGYDMLWVRQAPGKGLEWVAGIGSTGGGTDYGAAVKGRATISRDNGQSTVRLQLNNLRAEDTATYYCAKVAGGCNSGYCRDSPGSIDAWGHGTEVIVS
VL: AVTQQPASVSANPGETVKITCSGGGSRNYYGWYQQKSPGSVPVTVIYYDDQRPSNIPSRFSGALSGSTSTLTITGVQADDEAVYFCGSADSNTYEGSFGAGTTLTVL
B14: anti-CAPRIN-1 antibody (c) (antibody, V domains shown)
VH: AVTLDESGGGLQTPGGGLSLVCKASGFTFSSFDMGWVRQAPGKGLEFVAQINDAGSRTWYATAVKGRATISRDNGQTTVRLQLNNLRAEDTGTYYCTRGSGYVGAGAIDAWGHGTEVIVS
VL: AALTQPSSVSANPGETVKITCSGGSGYYGWYQQQKSPGSAPVTVIYQNDKRPSDIPSRFSGSGSGSTNTLTITGVQAEDEAVYFCGRYDSTDSGIFGAGTTLTVL

Target: T1, human CAPRIN-1 protein on cell membrane surfaces of human cancer cells (human, UniProt Q14444 2-709)
T1 construct: whole, on cells; Endogenous protein on cancer cells, stained without permeation of the cell membrane
T1 sequence (looked up): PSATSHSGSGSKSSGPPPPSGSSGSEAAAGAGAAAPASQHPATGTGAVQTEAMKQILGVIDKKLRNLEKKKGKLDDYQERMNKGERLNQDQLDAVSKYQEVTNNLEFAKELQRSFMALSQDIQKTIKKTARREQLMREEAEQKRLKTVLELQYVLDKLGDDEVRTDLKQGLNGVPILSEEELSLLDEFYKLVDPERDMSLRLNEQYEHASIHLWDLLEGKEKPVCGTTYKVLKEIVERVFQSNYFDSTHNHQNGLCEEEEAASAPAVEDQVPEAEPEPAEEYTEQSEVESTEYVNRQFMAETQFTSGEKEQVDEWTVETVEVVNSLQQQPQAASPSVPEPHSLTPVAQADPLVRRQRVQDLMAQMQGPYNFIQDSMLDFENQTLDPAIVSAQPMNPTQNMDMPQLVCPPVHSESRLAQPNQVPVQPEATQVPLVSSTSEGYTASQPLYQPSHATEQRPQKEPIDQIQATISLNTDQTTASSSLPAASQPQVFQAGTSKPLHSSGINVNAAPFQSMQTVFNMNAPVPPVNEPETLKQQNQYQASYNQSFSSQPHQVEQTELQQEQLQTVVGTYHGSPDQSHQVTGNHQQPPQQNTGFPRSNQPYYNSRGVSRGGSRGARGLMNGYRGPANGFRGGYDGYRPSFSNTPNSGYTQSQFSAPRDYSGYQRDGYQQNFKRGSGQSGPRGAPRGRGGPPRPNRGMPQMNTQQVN
Assay: flow cytometry on cancer cells expressing CAPRIN-1

Row | Binder | binding result
1 | B1 | binds
2 | B2 | binds
3 | B3 | binds
4 | B4 | binds
5 | B5 | binds
6 | B6 | binds
7 | B7 | binds
8 | B8 | binds
9 | B9 | binds
10 | B10 | binds
11 | B11 | binds
12 | B12 | binds
13 | B13 | binds
14 | B14 | binds
